Laboratory results reported in patent publication US11298402B2, “Lysosomal degradation of lipids and proteins and method of use thereof” (University of Ottawa, priority 2015, dated 2022).
Where a chain is given by its changes, count along the chain named. In names and notes the source's numbering stands.

B1: Arl8b^T34N: putative GDP-bound, dominant negative Arl8b mutant (Thr-to-Asn at 34; SEQ ID NO: 12), expressed from plasmid or adenovirus Adv-MG1023; tagged forms used (protein)
chain: MLALISRLLDWFRSLFWKEEMELTLVGLQYSGKNTFVNVIASGQFSEDMIPTVGFNMRKVTKGNVTIKIWDIGGQPRFRSMWERYCRGVNAIVYMIDAADREKIEASRNELHNLLDKPQLQGIPVLVLGNKRDLPNALDEKQLIEKMNLSAIQDREICCYSISCKEKDNIDITLQWLIQHSKSRRS
modifications: GFP/RFP tags in some forms; T34N substitution, GDP-binding
notes: tagged forms used
B2: Arl8b^Q75L: putative GTP-bound, dominant active Arl8b mutant (Gln-to-Leu at 75; SEQ ID NO: 13), expressed from plasmid or adenovirus Adv-MG1022; tagged forms used (protein)
chain: B1 chain with N34T, Q75L
modifications: GFP/RFP tags in some forms; Q75L substitution, GTP-binding
notes: tagged forms used

How the values were obtained:
[1] = system: McA-RH7777 cells stably expressing human apoB-100 and human apoC-III (A18-C3); type: cell-based; settings: for effect on EPA-induced lipid degradation (CLD turnover): cells silenced, transfected or pre-treated, then EPA 0.4 mM, 6 h
Method: In certain non-limiting examples described herein, McA-RH7777 cells stably expressing human apoB-100 and human apoC-III (designated A18-C3) were used for the studies. […] In addition, these studies, particularly those concerning EPA- or DHA-triggered lysosomal motility and CLD degradation, were also performed using primary rat hepatocytes. Transfection of plasmids encoding proteins of interest, or transfection of siRNA specific for silencing target gene expression, was achieved using the FuGENE HP Extreme reagent (Roche). Representative gene silencing siRNA sequences, which are not meant to be limiting, are described in Table 1, and plasmids encoding proteins of interest are described in Table 2. The effectiveness of siRNA silencing was verified by Western-blotting of cellular content of the target proteins, and by intracellular localization assay using siRNA-Tracker (Mirus Bioscience). Twenty-four h after plasmid transfection, or 48 h after siRNA transfection, the cells were cultured in lipid-rich media containing fetal bovine serum (20%) and OA (0.4 mM). The lipid-laden cells were switched to fresh media supplemented with OA or EPA (0.4 mM). In live imaging experiments, LipidTOX Red (Life Technologies) and LysoTracker (Life Technologies) were added to media prior to EPA treatment, to visualize lipid droplets and lysosomes, respectively. For visualizing peroxisomes, Peroxisome-GFP (Invitrogen) was introduced to the cells 24 h prior to experiments. Quantification of cell lipid contents was achieved either by direct mass measurement (HPTLC) and counting the number of lipid droplets using Image J Lipid Droplet Counter Plug-In, or indirectly by Western blot analysis of cellular content of ADRP. Secretion of apoB and TG-rich lipoprotein was determined by Western blot analysis and metabolic labeling. Mitochondrial β-oxidation was measured using MitoSOX Red (Life Technologies) in situ. Autophagic flux was determined by using Cyto-ID assay (Enzo Life Science) and by monitoring GFP-LC3 clustering in situ. Interaction of Arl8b and subunits of the HOPS complex was determined in situ by the proximity ligation assay (Olink Biosience). Cytoplasmic pH was measured using the cytosolic pHrodo indicator reagent (Invitrogen). Live imaging of fluorescent-tagged proteins was performed 1 h post-EPA treatment. Cells were also collected at the time of EPA treatment for transmission EM and tomography, as well as immuno-EM. For movies, cells were imaged at 60 sec intervals every 5 min, for a total of 30 min.
The A18-C3 cells were cultured in DMEM (Invitrogen) supplemented with fetal bovine serum (20%), penicillin (50 U/mL), streptomycin (50 μg/mL, Invitrogen) and Geneticin/G418 (500 μg/mL, Gibco) at 37° C. in 5% CO2. Transfection was conducted when cells were 60-70% confluence. Appropriate plasmids were mixed with FuGENE HP extreme reagent (Roche Diagnostic), according to manufacturer's protocol, and incubated for 30 min. Twenty-four h after transfection, cells were switched to lipid-rich media containing OA (0.4 mM) for additional 16 h prior to imaging and biochemical analysis. In silencing experiments, appropriate siRNAs were transfected into cells using the X-treme GENE siRNA regent (Roche Diagnostic). Localization of siRNA in transfected cells in situ was carried out using the Cy5 Label IT-siRNA Tracker (Minis Bioscience #7213) according to manufacturer's protocol. Forty-eight h after transfection, cells were switched to lipid-rich media containing OA (0.4 mM) for additional 16 h prior to imaging and biochemical analysis.
Quantification of lipid droplets was carried out using confocal and differential interface contrast (DIC) microscopy. Lipid droplets were stained with LipidTOX Red (Invitrogen) before adding OA or EPA. All images were visualized using a 63× oil immersion objective lens. Z-series stacks were acquired with 0.2 μm steps. […]

[2] = system: McA-RH7777 cells (A18-C3); experiment: Live imaging of lysosomal motility and lysosome-CLD interaction (kiss-and-run); type: cell-based, rat; settings: for lysosomal adherence to / dissociation from CLD (the off phase): Arl8b-expressing cells, EPA
[3] = system: McA-RH7777 cells (A18-C3); experiment: Immuno-EM of Arl8b organellar association; type: cell-based, rat; settings: RFP-tagged Arl8b in transfected cells, 1 h post-EPA
Method: For immunogold labeling, pellets of cells cultured in media containing OA or EPA (0.4 mM) were fixed with 0.5% glutaraldehyde and 4% paraformaldehyde in 0.1 M phosphate buffer (pH 7.4) and dehydrated through a series of graded ethanol dilutions, and embedded in LR White acrylic resin (London Resin Company). Ultrathin sections (80 nm) were placed on Formvar-coated nickel grids. For post-embedding immunolabeling, the sections were incubated with an anti-Arl8b antibody (Fitzgerald) for 1 h. For ^RFPArl8b-transfected cells, that primary antibody used was anti-RFP (Abcam). After washing with 0.2 M sodium cacodylate buffer containing 0.1% calcium chloride, pH 7.4, the samples were incubated with the secondary antibody conjugated with 10-nm gold particles. To increase contrast, the ultrathin sections were stained with 2% uranyl acetate for 6 min and Reynold's lead for 5 min. The grids were examined with a Tecnai 12 120 kV TEM as described above.

C57BL/6 mice = experiment: Diet-induced fatty liver mouse model (high-fat-high-sucrose diet), Oil Red O; type: in vivo; settings: adenovirus injected 1 day before HFHS diet for up to 4 days
Method: The respective Arl8b^T34N (DN), Arl8b^Q75L (DA), and Arl8b^WT constructs, along with empty virus (EV; control treatment) were injected into mice 1 day prior to feeding with a high fat diet for up to 4 days. The livers were stained with Oil Red O to determine the lipid contents, under the expression of various forms of Arl8b.
In these experiments, C57BL/6 mice were injected with adenovirus encoding different variants, namely Arl8b^T34N, Arl8b^Q75L, and Arl8b^WT. In these mice, expression of Arl8b proteins encoded by the adenoviral vectors lasts at least a few weeks. Thus, 1-day after viral injection, the mice were placed on a high-fat-high-sucrose (HFHS) diet for up to 4 days.

Molecule | lipid content of lipid-laden cells without addition of EPA ([1]; OA-treatment conditions, transfected cells) | effect on the inhibition of microautolipophagy by Vps41 and GTP-bound Arl8b ([1]; cell culture studies) | effect on EPA-induced lipid degradation (CLD turnover) [1] | lysosomal adherence to / dissociation from CLD (the off phase) [2] | organellar association (lysosome vs CLD) [3] | liver steatosis (Oil Red O) (C57BL/6 mice) | lysosomal adherence to / dissociation from CLD (the off phase) ([2]; listed as GFP::Arl8b^Q75L) | effect on EPA-triggered lysosomal motility / lysosomal interaction with CLD ([2]; cells silenced, transfected or pre-treated (15 min) before EPA)
B1 | lipid content is lowered | can override the inhibitory effect of Vps41 and a GTP-bound form of Arl8b on microautolipophagy | accelerated | fastened | mainly CLD-borne | nearly absent lipid accumulation |  | 
B2 |  |  | completely blocked | no disassociation of lysosomes from CLD occurred | predominately associated with lysosomes | developed pronounced steatosis | prolonged lysosomal adherence to CLD | higher incidence of direct lysosome-lipid droplet interaction
